The values that follow come from paper PMC6952110, “A divergent CheW confers plasticity to nucleoid-associated chemosensory arrays” (PLoS Genetics, 2019).

This experiment deals with T1, 6His-FrzCD (M. xanthus, UniProt P43500 1-417).
T1 construct: FrzCD, cytoplasmic methyl-accepting chemotaxis protein of the Frz system, Myxococcus xanthus; also called cytoplasmic MCP of the Frz system; source: E. coli BL21(DE3); in lysate (co-purification) and purified on NiNTA resin (BLi)
T1 sequence (looked up): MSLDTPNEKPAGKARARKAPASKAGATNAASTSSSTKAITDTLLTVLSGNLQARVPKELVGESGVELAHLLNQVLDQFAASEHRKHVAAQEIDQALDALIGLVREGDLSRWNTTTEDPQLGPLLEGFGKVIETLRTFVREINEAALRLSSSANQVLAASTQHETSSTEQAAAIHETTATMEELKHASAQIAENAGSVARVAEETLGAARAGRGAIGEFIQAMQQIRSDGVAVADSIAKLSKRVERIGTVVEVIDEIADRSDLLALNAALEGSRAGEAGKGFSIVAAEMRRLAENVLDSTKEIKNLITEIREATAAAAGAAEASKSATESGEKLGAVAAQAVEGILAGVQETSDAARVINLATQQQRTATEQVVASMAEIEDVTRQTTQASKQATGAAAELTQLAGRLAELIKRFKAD
The experiment is described as follows: BLI; BLItz, 25°C; 6His-tagged ligand immobilised on Ni-NTA biosensors at 4 μM; GST-FrzB as analyte at 0.2 to 20 μM; Tris HCl 50 mM pH8, NaCl 300 mM; global 1:1 fit; double reference subtraction. Particulars: both partners purified. In general terms: Biolayer interferometry detects binding as a change in optical thickness at a sensor tip.

B1: GST-FrzB (natural protein, M. xanthus, UniProt P43499 1-112, looked up)
chain: MDLLFFDIGATLYGTDASQVLRIDRALPEDLTLAELGLPHRGNRAIVFDTPEGEAHLKVDAVHGVRSIPVNSLRRMPPTAGAAAYAVGVCLEEARTVLLIDLVETARTQGRH
notes: FrzB, CheW-like protein of the Frz chemosensory system, Myxococcus xanthus, Uniprot P43499; also called divergent CheW; source: E. coli BL21(DE3)
For the molecule B1, the Kd – broadly, the concentration at which binding is half-saturated – was 700 nM.
